Assay results as given in article PMC2515308, “Structural characterization of CA1462, the Candida albicans thiamine pyrophosphokinase” (BMC Structural Biology, 2008).

Legend:
[1] = biological target: Candida albicans thiamine pyrophosphokinase CA1462 (Candida albicans); assay: SEC; gel filtration of the purified TPK proteins on a Sephacryl S200 HR column
[2] = biological target: the molecule itself; assay: as above

Candida albicans thiamine pyrophosphokinase CA1462 (enzyme)
stoichiometry N [1]: 2

B1: Saccharomyces cerevisiae thiamine pyrophosphokinase YOR143C (enzyme)
chain: GHHHQLSEECIENPERIKIGTDLINIRNKMNLKELIHPNEDENSTLLILNQKIDIPRPLFYKIWKLHDLKVCADGAANRLYDYLDDDETLRIKYLPNYIIGDLDSLSEKVYKYYRKNKVTIIKQTTQYSTDFTKCVNLISLHFNSPEFRSLISNKDNLQSNHGIELEKGIHTLYNTMTESLVFSKVTPISLLALGGIGGRFDQTVHSITQLYTLSENASYFKLCYMTPTDLIFLIKKNGTLIEYDPQFRNTCIGNCGLLPIGEATLVKETRGLKWDVKNWPTSVVTGRVSSSNRFVGDNCCFIDTKDDIILNVEIFVDKLIDFLQLDGDLEAA
stoichiometry N [2]: 2
